The supplement of paper PMC9170038

system: MS2 coat protein; assay: apparent KD of MS2 coat protein; higher = weaker reporter binding; details: Eterna round: R107; input ligand: arginine 13.2 mM
How it was run: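 SNAP-549-labelled MS2 coat protein was titrated onto designed RNA switches that had been transcribed on-chip from Illumina sequencing clusters. Amounts doubled from 0.7 or 1.5 nM to 3 µM in 100 mM Tris-HCl pH 7.5, 80 mM KCl, 4 mM MgCl2, with constant ligand or without. Apparent KD is the median per design of normalised cluster binding-curve fits.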

Sequence | apparent KD of MS2 coat protein [nM]
AAAGUUGAUGAGUUGCGUUUGUGUUCCGAAGGAGCGAGAAUUAUCUCAGGUAGGUCGCGGAACAUGAGGAUCACCCAUGUAUAAA [XArg-A 19 NuV1&2 original #dotplot2>1] | 35.3
GGAGGUACCCGAAGGAGCGACAUGAGGAUCACCCAUGUCUCCCGUUAUGGGAGUUCCUUAGGUCAGGUAGGUCGCGGGUACCUCC [#1 Exclusion - Arginine B Attempt #1 (Inspired by Omei)] | 92.7
UGACAUUGCUCAGAUACCAGACGUGAGGAUCACCCACGUGCCAACAUGAGGAUCACCCAUGUCCCUUGGCAGCUGAGCAAUGUCU | 12.8
GAGAGUGUGUGCGAAAGCACAGAUCUGGAAGGAGCGUAGAAAGAUACAGGUAGGUCGCCGGGACAUGAGGAUCACCCAUGUGUAU [ArgiA-ms2@63] | 38.9
UACAUGAGGAUCACCCAUGUAAGGUGAGAUACCAGUGAUAUGCUACACCCUUGGCAGCUCACGGCUGACUAUCAGCACACAUGUA [Theo A SS t1] | 28.2
GGUGGCUGGAUCGAUACCAGCCACCACCGAUAGACCACAUGAGGAUCACCCAUGUUGGGUGGCCCUUGGCAGCGGUCCAGCUGCC [#1 Same State - Theophylline B Attempt #5 (HarryS)] | 78.8
UUAUGCAGGUCGGCCGCCACUACACACAUGAGGAUCACCCAUGUAGUUACUGGGUGAAGUGGCAGUAGGACCGGGACCUGCACAU [Brourdmod13] | 52
UCUAACAUGAGGAUCACCCAUGUACCGUCCCGAGGACCGGUACGGCCGCCACUCGUCUUGCUAAAACUGAAGUGAUCACAAGCCU [theeternabot_sameState_MS2_Trp_A_2] | 25.2
AUAAUUGGGUUAAUUAGUUUUAGGUCCAGUCGAGGACCGGUACGGCCGCCACUCGUUCCGAGAUACAUGAGGAUCACCCAUGUUA [JR_ExcTryptoA_Sub015] | 17.3
CCCUGGGUGGGAAGGAGCGCAUAGUGAACAUGAGGAUCACCCAUGUGCAGACGUGAGUCAUUGCAGGUAGGUCGCCCACCCAGGG [SS-ArgB22] | 10.2
AUCGUACCUGGUGAUACCAGCAAUUGCUCGUGACAUGAGGAUCACCCAUGUGGCCAGUGAUGCCCUUGGCAGCAUGGUCGGUGCA [Same State - Theophylline B (Freestyle 24)] | 72.4
GGAUGAAACUGAAGGAGCGAGAUCACAAGAUUGGGUCUAACAUGAGGAUCACCCAUGUAAUCUCAGGUAGGUCGCAGUGUCCCUU [Exclusion Arginine B GF 12] | 33
CCUUAACAUGAGGAUCACCCAUGUCUGGAUACCAGAUACAGAUAAAUCCCUUGGCAGCCAAAAUAUGAAAGAAAUAAAAUAAGAA [theeternabot_sameState_MS2_Theo_A_29] | 27.5
GCACCAGGUACGGAUACCAGCUGCCAGCGUUACAUGAGGAUCACCCAUGUGAUCUGAAGUAGCCCUUGGCAGCUGUACCUGGUGC [SSThB NP+V+V2 #4 +-Same Structure] | 96.7
GCUUGGGUGGCACAGCACUGGCAGUGCGAUACCAGCACGGUAACGUGCCCUUGGCAGCGCACAUGAGGAUCACCCAUGUGGUGCG [#1 Exclusion - Theophylline A Attempt #26 (HarryS)] | 18.8
GAACAAGGUUUCUUGUUCGGUCGCUGAGAAGGAGCGCGGUAACCCGCAGGUAGGUCGCUCAGAAAUACAUGAGGAUCACCCAUGU [Anaa] | 17.4
GCAAAGUGAUCGGCCGCCACUGCAAUGCUUAAUGGAGGUCCACAUGAGGAUCACCCAUGUCUUCCCAGGACCGGGAUCUCGAGUU [theeternabot_sameState_MS2_Trp_B_3] | 59

Sequence | apparent KD of MS2 coat protein [nM]
AUACAUGAGGAUCACCCAUGUAUAGUUGAAGGAGCGACCAGAGGGUCAGGUAGGUCGCAGCACAUGAGGAUCACCCAUGUAUUUU [#1 Exclusion - Arginine A Attempt #14 (Inspired by Pi)] | 32.6
UCGCCCGGGUCGGCCGCCACUGAGGUGAUAUGACAUGAGGAUCACCCAUGUUGUCAUGUGGAACAUAGGACCGGGACCCGGGCGA [Exclusion - Tryptophan B Attempt #2 (HarryS)] | 15.7
ACACGGCAUGAUGGAUCACCUCGUGAAUCACGAGGACCGGUACGGCCGCCACUCGAAAACCGUGACCUGUACGAAAAGUGCAGGA | 36
AACGUGAACGUGGUAUACCCGUGUGCCGAAGGAGCGCCCGUAAGGGCAGGUAGGUCGCGGUCGACAUGAGGAUCACCCAUGUUUG | 39.5
AGCCACUCGAGUGAUCCUCACGAGUGGCUACGAGGACCGGUACGGCCGCCACUCGAAUUAACAUGAGGAUCACCCAUGUAAUCAC [Brourdmod05] | 81.1
CAAUGCGGUUAGGAUACCAGCGACACACACUUCUCACAACACAUGAGGAUCACCCAUGUCCGCCCUUGGCAGCCUUGACUAAGGU [theeternabot_exclusion_MS2_Theo_B_39] | 30.2
CACGAAAGAUCGGCCGCCACUCAUGUUUCUUACAUGAGGAUCACCCAUGUAUUUUCUUUCUUUUAGAGGACCGGGAUCGAGCGUG [#01 Same State - Tryptophan B] | 46.8
CGGUUUGUGAUGGAUACCAGCAGAGAAAAUGUUUAUCCUAACAUGAGGAUCACCCAUGUGUGCCCUUGGCAGCUGUUGUGGGCUG [8.W] | 46
GCAUCCUAGUCGGCCGCCACUGCAUCACCGGUCCUAGGUGAUCAACAUGAGGAUCACCCAUGUAGCAGGACCGGGACUAGGAUGC [(Trp1)-(MT)''-(MT)'-(Ms2)-(Trp2)_Design2] | 345
AUUGUGAACCUGAUCGUAUAAUGUAGCGAUACCAGUAUAAUACAUUACCCUUGGCAGCGCGACACAUGAGGAUCACCCAUGUAAG [theeternabot_exclusion_MS2_Theo_A_10] | 19.6
GUAUUCAUGACGGCCGCCACUGCAAGCCUCCUCAUGGCAGAUUGACAUGAGGAUCACCCAUGUCUCAGGACCGGGUCUGGCAUCC [theeternabot_sameState_MS2_Trp_B_43] | 65.8
AUAUCAUAGAGUGAUACCAGACUACAUGAGGAUCACCCAUGUGACAUUUAAAUAUCAUUUGUCCCUUGGCAGCACAUUAAGUACA [JR_Nu_ExcTheophyB_Sub020] | 50.6
CUAUAAGUACCGGUCCUCAGAUCCUCAUGACGAGGACCGGUACGGCCGCCACUCGAAACAUGAGGAUCACCCAUGUAAUAACAUU [Brourdmod22] | 18.5
CACGAAAGAUCGGCCGCCACUAAUCGAUGUGUUCUUUCACAUGAGGAUCACCCAUGUUCUUGCGUUAGGACCGGGAUUGAGCGUG [#01 Exclusion Tryptophan B] | 32.1
GAAUUAUGACGUGAUACCAGUGGUCAAUACUGGGAACUUAACAUGAGGAUCACCCAUGUCCACCCUUGGCAGCACGCUGACAAUC [theeternabot_exclusion_MS2_Theo_B_14] | 43.5
ACGAUAGGACAUGAGGAUCACCCAUGUGAUACCAGCCUGGAAACAGGCCCUUGGCAGCACAAAUACUCCAGAAACCUAUCGAAUA [TheoAX2 #MicroSwitchBubble] | 124
ACCGCAUCCGUAUAGGAUGCGGGCCAUGAAGGAGCGUGGGAAACCACAGGUAGGUCGCAUGGGUUACAUGAGGAUCACCCAUGUG [Jaws] | 26.4
